Data on twelve molecules can be found in US20050026157, “Use of chimeric nucleases to stimulate gene targeting” (published 2005).

Data set [1] has as its system CD8CN1 chimeric nuclease (synthetic). Description: cell_activity. As to conditions: paired with CD8CN2; 5% without nucleases.
Data set [2] has as its target ZIF-L3-Fn chimeric nuclease (Zif268 zinc fingers, 3 aa linker, FokI nuclease domain) (UniProt P08046). As to the kind of experiment: cell_activity. The settings on record: QQRZIF6 target, heterodimer with QQR-L0-Fn; no significant stimulation alone; FIG. 3A prints Zif site as GCGTGGTCG
The test system of data set [3] is QQR-L18-Fn chimeric nuclease (QQR zinc finger triplet, 18 aa linker, FokI nuclease domain) (synthetic). Description: cell_activity. The settings on record: homodimer, 293 cells.
Data set [4] concerns HBGZF1 chimeric nuclease (synthetic). As to the kind of experiment: cell_activity. As to conditions: with ZIF-L3-Fn on hybrid target; no significant stimulation alone.
For data set [5], the system named is HBGZF4 chimeric nuclease (synthetic). As to the kind of experiment: cell_activity. The settings on record: with ZIF-L3-Fn on hybrid target; ~30 fold alone.
The subject of data set [6] is CD8CN2 chimeric nuclease (synthetic). As to the kind of experiment: cell_activity. As to conditions: paired with CD8CN1; 5% without nucleases.
Data set [7] relates to HCGCZF2 chimeric nuclease (synthetic). As to the kind of experiment: cell_activity. The settings on record: with ZIF-L3-Fn on hybrid target; no significant stimulation alone.
The subject of data set [8] is GFP-CN2 chimeric nuclease (synthetic). Description: cell_activity. The settings on record: paired with GFP-CN1, 293 cells.
The subject of data set [9] is GFP-CN1 chimeric nuclease (synthetic). As to the kind of experiment: cell_activity. The settings on record: paired with GFP-CN2, 293 cells.
The subject of data set [10] is QQR-L0-Fn chimeric nuclease (QQR zinc finger triplet, no linker, FokI nuclease domain) (synthetic). As to the kind of experiment: cell_activity.
The target of data set [11] is T1, I-SceI (UniProt P03882 P03882:1-235).
T1 sequence: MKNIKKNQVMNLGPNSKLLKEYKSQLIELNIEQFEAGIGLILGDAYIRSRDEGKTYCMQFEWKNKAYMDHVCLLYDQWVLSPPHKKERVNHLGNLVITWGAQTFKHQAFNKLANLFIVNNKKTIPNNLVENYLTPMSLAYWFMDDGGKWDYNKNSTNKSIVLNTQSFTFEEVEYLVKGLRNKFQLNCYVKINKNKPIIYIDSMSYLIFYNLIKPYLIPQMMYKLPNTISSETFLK
As to the kind of experiment: cell_activity; homing endonuclease, A658 target, 293 cells. The source says:
FIG. 1A illustrates a GFP gene targeting system. The artificial gene target (A658) consisted of a GFP gene mutated by a 35 basepair insertion which includes a stop codon and a recognition site for the I-SceI endonuclease (Sce) (5′ […] 3′) at basepair 327 of the coding sequence. The GFP gene was driven by a hybrid cytomegalovirus enhancer/chicken β3-actin promoter (“CMV/CBA” or “CBA”). The GFP gene was part of bicistronic transcript in which an internal ribosomal entry site (“IRES”) allowed translation of the human CD8α gene (“CD8”). The bicistronic message contained a Woodchuck post-trancriptional regulatory element (“WPRE”) to increase messenger RNA levels (Zufferey et al., 1999, J Virol, 73:2886-92). Finally, the locus contained a gene with the phosphoglycerate kinase promoter (“PGK”) driving the neomycin phosphotransferase gene (NEO) to allow selection by the antibiotic G418. […] Gene targeting was measured by transfecting 293/A658 cells with RS2100 with or without a Sce expression plasmid along with a control plasmid (pON405) to determine the transfection efficiency. […] The cells were then incubated for 3 days and the percentage of GFP positive cells measured by flow cytometry using a FACScan (BD Biosciences, San Jose, Calif.). The gene targeting rate was determined by normalizing the measured percentage of GFP positive cells to the transfection efficiency.

Sequence of ZIF-L3-Fn chimeric nuclease (Zif268 zinc fingers, 3 aa linker, FokI nuclease domain) (P08046 whole entry, change not shown, the tested form may be a part): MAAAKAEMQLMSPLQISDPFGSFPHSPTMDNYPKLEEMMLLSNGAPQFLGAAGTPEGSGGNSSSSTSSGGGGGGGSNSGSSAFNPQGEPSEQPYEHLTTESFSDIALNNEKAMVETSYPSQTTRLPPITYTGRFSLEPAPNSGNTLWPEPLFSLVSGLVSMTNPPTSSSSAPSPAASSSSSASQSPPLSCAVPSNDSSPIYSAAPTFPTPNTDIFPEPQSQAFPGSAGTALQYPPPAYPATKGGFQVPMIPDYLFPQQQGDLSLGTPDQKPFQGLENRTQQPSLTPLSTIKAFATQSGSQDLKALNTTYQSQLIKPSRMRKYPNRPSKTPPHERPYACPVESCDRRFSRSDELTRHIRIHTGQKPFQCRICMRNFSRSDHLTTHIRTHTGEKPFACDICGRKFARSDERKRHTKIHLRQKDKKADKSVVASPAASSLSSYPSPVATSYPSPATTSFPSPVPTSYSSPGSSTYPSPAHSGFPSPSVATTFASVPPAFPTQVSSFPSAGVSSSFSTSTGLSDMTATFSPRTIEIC

Consider “GTGGGCGCC (double strand) [CD8CN1 half-site]”, for which the activity (% CD8 negative cells) in data set [1] is greater than 20.

As to “GCGTGGGCG (double strand) [Zif268 half-site]”, the activity (fold stimulation of gene targeting) in data set [2] was greater than 5000.

Take “GGGGAAGAA (double strand) [QQR8 target (inverted QQR sites, 8 bp spacer)]”: in data set [3], the activity (fold stimulation of gene targeting) was determined as 260.

As for “GAGGTTGCT (double strand) [HBGZF1 half-site]”, the activity (fold stimulation of gene targeting) in [4] was greater than 4000.

Take “GGCAAGGTG (double strand) [HBGZF4 half-site]”: the activity (fold stimulation of gene targeting) in data set [5] was determined as 60.

Regarding “GTCGCAGCC (double strand) [CD8CN2 half-site]”, the activity (% CD8 negative cells) in data set [6] is greater than 20.

Take “GGGGGAGCA (double strand) [HCGCZF2 half-site]”: the activity (fold stimulation of gene targeting) in [7] was greater than 200.

Regarding “GACGACGGC (double strand) [GFP-CN2 half-site]”, the activity (fold stimulation of gene targeting) in data set [8] came to 1000.

On to “GAAGATGGT (double strand) [GFP-CN1 half-site]”, for which the activity (fold stimulation of gene targeting) in data set [9] came to 1000.

In the case of “GGGGAAGAA (double strand) [QQR half-site in QQRZIF6]”, the activity (fold stimulation of gene targeting) in data set [10] (QQRZIF6 target, heterodimer with ZIF-L3-Fn, no significant stimulation alone) is greater than 5000.

As for “GGGGAAGAA (double strand) [QQR6 target (inverted QQR sites, 6 bp spacer)]”, the activity (fold stimulation of gene targeting) in data set [3] is 17; in data set [10] (homodimer, 293 cells, as efficient as I-SceI), greater than 2000.

B1: I-SceI site in A658 (dsDNA)
DNA 1: TAGGGATAACAGGGTAAT
DNA 2: ATTACCCTGTTATCCCTA
On to B1, for which the activity in data set [11] is > 2000 fold stimulation of gene targeting.
